Measurements from US20250197502A1 (EXELIXIS, published 2025).

How the values were obtained:
[1] = target: T1, Human CD47, soluble His-tagged extracellular domain (AcroBiosystems Cat# CD7-H82E9) (human, UniProt Q08722 19-139); test: phage display selection and phage ELISA on biotinylated human CD47 extracellular domain
T1 construct: Bought reagent; also called biotinylated human CD47 His-Avitag; not shown: His tag / His-Avitag of the bought reagent

[2] = target: T2, Human PD-L1, soluble His-tagged (AcroBiosystems Cat# PD1-H82E5) (human, UniProt Q9NZQ7 19-238); test: phage display selection and phage ELISA on biotinylated human PD-L1 extracellular domain, then affinity maturation
T2 construct: The Carterra reagent PD1-H82E5 is only called a soluble, His-tagged antigen; The Biacore reagent is not specified; also called PD-L1/B7-H1; not shown: His tag of the bought reagent
T2 sequence (Q9NZQ7 19-238): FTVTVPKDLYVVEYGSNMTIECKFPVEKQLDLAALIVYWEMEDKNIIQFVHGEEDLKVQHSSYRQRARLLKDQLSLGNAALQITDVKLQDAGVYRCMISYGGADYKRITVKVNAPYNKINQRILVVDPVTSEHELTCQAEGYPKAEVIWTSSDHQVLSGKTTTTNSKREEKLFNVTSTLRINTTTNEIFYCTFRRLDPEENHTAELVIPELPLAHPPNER

[3] = target: T3, CD47 and PD-L1 co-expressed on the surface of tumor cells (PDL1-MDA-MB-231, NCI-H292, HT-1080) (human, UniProt Q08722 19-323; Q9NZQ7 19-290); test: flow cytometry (MFI) on NCI-H292 cells endogenously expressing CD47 and PD-L1
T3 construct: Not a complex: two separate membrane proteins on the same cell; also called cells expressing CD47 and PD-L1; PDL1-MDA-MB-231 cells
T3 sequence (Q08722 19-323 limits assumed, chain 1 of 2): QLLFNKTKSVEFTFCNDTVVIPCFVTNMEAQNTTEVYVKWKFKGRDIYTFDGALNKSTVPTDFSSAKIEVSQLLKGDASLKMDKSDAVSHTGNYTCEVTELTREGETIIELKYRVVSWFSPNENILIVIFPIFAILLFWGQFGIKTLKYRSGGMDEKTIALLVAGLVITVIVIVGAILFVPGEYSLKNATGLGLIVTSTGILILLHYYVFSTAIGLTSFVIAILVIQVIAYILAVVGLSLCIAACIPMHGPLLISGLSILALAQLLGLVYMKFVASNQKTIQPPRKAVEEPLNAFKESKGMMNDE
T3 sequence (Q9NZQ7 19-290 limits assumed, chain 2 of 2): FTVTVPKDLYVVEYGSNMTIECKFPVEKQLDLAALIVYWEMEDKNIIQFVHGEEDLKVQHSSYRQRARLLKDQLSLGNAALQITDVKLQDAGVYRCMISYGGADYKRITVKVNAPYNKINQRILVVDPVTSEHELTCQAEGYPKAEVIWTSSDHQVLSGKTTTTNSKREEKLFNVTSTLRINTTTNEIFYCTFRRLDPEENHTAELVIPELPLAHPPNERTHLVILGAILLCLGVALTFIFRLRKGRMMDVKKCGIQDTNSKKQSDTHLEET

[4] = target: T4, Human PD-L1 on the cell surface (tumor cell lines) (human, UniProt Q9NZQ7 19-290); test: cell-based or functional assay
T4 sequence (Q9NZQ7 19-290 limits assumed): as the sequence (Q9NZQ7 19-290 limits assumed, chain 2 of 2) above

[5] = target: T3, CD47 and PD-L1 co-expressed on the …; test: flow cytometry, MFI on NCI-H292 tumor cells mixed with human RBC (tumor cells labelled with CellTrace Violet)
[6] = target: T3, CD47 and PD-L1 co-expressed on the …; test: flow cytometry (MFI) on HT-1080 cells endogenously expressing CD47 and PD-L1
[7] = target: T5, Cynomolgus CD47, soluble His-tagged (AcroBiosystems Cat# CD7-C52H1) (cynomolgus, UniProt A0A2K5X523 19-139); test: Biacore (SPR); format not described
T5 construct: Soluble antigen; also called Cyno CD47; cyno-CD47

[8] = target: T1, Human CD47, soluble His-tagged …; test: Biacore (SPR); format not described
[9] = target: T6, Cynomolgus PD-L1, soluble His-tagged (AcroBiosystems Cat# PD1-C52H4) (cynomolgus, UniProt G7PSE7 19-239); test: Biacore (SPR); format not described
T6 construct: Soluble antigen; also called Cyno PD-L1; cyno-PD-L1
T6 sequence (G7PSE7 entry or part of it): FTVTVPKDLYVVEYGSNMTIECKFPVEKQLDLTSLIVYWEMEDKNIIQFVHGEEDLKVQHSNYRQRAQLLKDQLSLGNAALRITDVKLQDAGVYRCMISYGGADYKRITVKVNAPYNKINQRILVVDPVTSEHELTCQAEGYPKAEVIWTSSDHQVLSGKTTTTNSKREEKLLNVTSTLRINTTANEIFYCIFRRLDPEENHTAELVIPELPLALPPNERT

[10] = target: T2, Human PD-L1, soluble His-tagged …; test: Biacore (SPR); format not described
[11] = target: T5, Cynomolgus CD47, soluble His-tagged …; test: Carterra biosensor kinetics; bsAb1 coupled to HC30M chip, soluble His-tagged antigen 1.2-900 nM, global fit
Procedure: (§1) To obtain accurate kinetic constants, the bispecific antibody was prepared at concentrations ranging from 1 to 10 μg/mL in 10 mM NaOAc (pH 4.25 or pH 4.5), and the coupling reaction was performed in running buffer (25 mM MES, pH 5.5) using multiple chip locations for each concentration. In the next association step, the binding interaction of antigen to the coupled antibody was measured. In general, each binding event consisted of a one minute baseline interval followed by a 5 minute antigen injection and a 15 minute dissociation with HBSTE buffer (10 mM HEPES, 150 mM NaCl, 3 mM EDTA, 0.01% Tween-20, pH 7.4) as running buffer. […] Antigens for binding studies were then prepared by reconstituting according to manufacturer recommendation. To obtain accurate kinetic constants, the reconstituted antigens were subsequently diluted into HBSTE buffer to final concentrations ranging from 1.2 nM to 900 nM. Injections of the antigens at each concentration were performed in series. In the next dissociation step, a regeneration process consisting of three times of injection for 25 seconds with 0.1 M glycine (pH 2.8), 1 M NaCl was performed between each antigen binding event, by which the bound antigen on the surface of the chip was allowed to dissociate. Carterra Kinetics analysis package was used to calculate rate constants (kₐ, kd) and corresponding equilibrium dissociation constants (Kd). Binding data were first recovered by double-referencing to subtract the closest reference cell and blank injection.

[12] = target: T1, Human CD47, soluble His-tagged …; test: as above
Procedure: as §1

[13] = target: T6, Cynomolgus PD-L1, soluble His-tagged …; test: as above
Procedure: as §1

[14] = target: T2, Human PD-L1, soluble His-tagged …; test: as above
Procedure: as §1

[15] = target: T7, Human CD47 on the cell surface (tumor cell lines; human red blood cells) (human, UniProt Q08722 19-323); test: cell-based or functional assay
T7 sequence (Q08722 19-323 limits assumed): as the sequence (Q08722 19-323 limits assumed, chain 1 of 2) above

[16] = target: T4, Human PD-L1 on the cell surface (tumor …); test: cell-based or functional assay; remark: listed apart in the source
[17] = target: T3, CD47 and PD-L1 co-expressed on the …; test: cell-based or functional assay
[18] = target: T7, Human CD47 on the cell surface (tumor …); test: cell-based or functional assay; remark: listed apart in the source
[19] = target: T3, CD47 and PD-L1 co-expressed on the …; test: flow cytometry (MFI) on PDL1-MDA-MB-231 cells co-expressing CD47 and PD-L1; PDL1-MDA-MB-231 cells carrying both CD47 (~500,000) and PD-L1 (~1,500,000)

T1 sequence (Q08722 19-139): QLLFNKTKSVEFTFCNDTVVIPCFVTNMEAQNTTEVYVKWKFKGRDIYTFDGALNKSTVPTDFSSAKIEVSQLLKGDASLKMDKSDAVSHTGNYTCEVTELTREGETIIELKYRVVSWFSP

B1: Antibody mAb-C (selected CD47 binding antibody) (antibody, IgG1, V domains shown)
VH: EVQLVESGGGLVQPGGSLRLSCAASGFTFSWYYIHWVRQAPGKGLEWVAYIDSSSGYTEYADSVKGRFTISADTSKNTAYLQMNSLRAEDTAVYYCARGGYLGMDYWGQGTLVTVSS
VL: DIQMTQSPSSLSASVGDRVTITCRASQSVSSAVAWYQQKPGKAPKLLIYSASSLYSGVPSRFSGSRSGTDFTLTISSLQPEDFATYYCQQSRSRPRTFGQGTKVEIK
notes: Selected as a Fab on phage
binding result [1]: binds

B2: Antibody mAb-P (selected and then affinity matured PD-L1 binding antibody) (antibody, human IgG1, V domains shown)
VH: EVQLVESGGGLVQPGGSLRLSCAASGFTFRSYYIHWVRQAPGKGLEWVATISSYGVFTYYADSVKGRFTISADTSKNTAYLQMNSLRAEDTAVYYCARGTTLTPVLDYWGQGTLVTVSS
VL: DIQMTQSPSSLSASVGDRVTITCRASQSVSSAVAWYQQKPGKAPKLLIYSASSLSSGVPSRFSGSRSGTDFTLTISSLQPEDFATYYCQQFGAEPITFGQGTKVEIK
binding result [2]: binds

B3: bsAb1 (mAb-C x mAb-P in an exemplary format; bispecific anti-CD47 x anti-PD-L1 antibody of four polypeptide chains) (bispecific antibody)
chain 1: not shown
chain 2: EVQLVESGGGLVQPGGSLRLSCAASGFTFSWYYIHWVRQAPGKGLEWVAYIDSSSGYTEYADSVKGRFTISADTSKNTAYLQMNSLRAEDTAVYYCARGGYLGMDYWGQGTLVTVSSAQPREPQVYTLPPCRDWLTKNQVSLTCLVKGFYPSDIAVEWESNGQPENNYKTTPPVLDSDGSFFLYSKLTVDKSRWQQGNVFSCSVMHEALHNHYTQKSLSLSPGK
chain 3: not shown
chain 4: EVQLVESGGGLVQPGGSLRLSCAASGFTFRSYYIHWVRQAPGKGLEWVATISSYGVFTYYADSVKGRFTISADTSKNTAYLQMNSLRAEDTAVYYCARGTTLTPVLDYWGQGTLVTVSSASTKGPSVFPLAPSSKSTSGGTAALGCLVKDYFPEPVTVSWNSGALTSGVHTFPAVLQSSGLYSLSSVVTVPSSSLGTQTYICNVNHKPSNTKVDKKVEPKSC
notes: Chains 1+2 form the CD47 arm (mAb-C), chains 3+4 the PD-L1 arm (mAb-P); also called the selected bispecific antibody
EC50 [3]: 700 pM
IC50, PD-L1/PD-1 block (PathHunter PD-1/PD-L1 signaling bioassay) [4]: 500 pM
EC50 (read off the curve) [5]: ~700 pM
EC50 [6]: 200 pM
Kd [7]: 25000 pM
koff [7]: 0.0137 s⁻¹
Kd [8]: 21000 pM
koff [8]: 0.0141 s⁻¹
Kd [9]: 34 pM
koff [9]: 0.00012 s⁻¹
Kd [10]: 50 pM
koff [10]: 0.000164 s⁻¹
Kd [11]: 24000 pM
koff [11]: 0.0046 s⁻¹
kon [11]: 190000 M⁻¹ s⁻¹
Kd [12]: 27000 pM
koff [12]: 0.0093 s⁻¹
kon [12]: 350000 M⁻¹ s⁻¹
Kd [13]: 180 pM
koff [13]: 0.00015 s⁻¹
kon [13]: 890000 M⁻¹ s⁻¹
Kd [14]: 150 pM
koff [14]: 0.00013 s⁻¹
kon [14]: 980000 M⁻¹ s⁻¹
EC50 of inhibiting CD47/SIRPα signaling in PDL1-MDA-MB-231 cells (PathHunter chemiluminescent signal) [15]: 76 pM
EC50 of inhibiting PD-1/PD-L1 interaction in PDL1-MDA-MB-231 cells (PathHunter chemiluminescent signal) [16]: 220 pM
ADCP (phagocytosis of NCI-H292 cells) EC50 [17]: 200 pM
IC50, CD47/SIRPa block (PathHunter CD47/SIRPα signaling bioassay) [18]: 800 pM
EC50 [19]: 220 pM
